Source: US20120258099
Where a chain is given by its changes, count along the chain named.

Columns and labels:
[1] = system: T1, GST-TRIPE32G
T1 sequence: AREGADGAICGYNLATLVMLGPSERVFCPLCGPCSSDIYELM

[2] = system: T2, GST-TRIPT16M/L17S
T2 sequence: T1 sequence with T16M, L17S, G32E

[3] = system: GST [GST: P08515]
[4] = system: T3, GST-TRIPα
T3 sequence: T1 sequence with G32E

Sequence of GST [GST: P08515] (P08515 whole entry): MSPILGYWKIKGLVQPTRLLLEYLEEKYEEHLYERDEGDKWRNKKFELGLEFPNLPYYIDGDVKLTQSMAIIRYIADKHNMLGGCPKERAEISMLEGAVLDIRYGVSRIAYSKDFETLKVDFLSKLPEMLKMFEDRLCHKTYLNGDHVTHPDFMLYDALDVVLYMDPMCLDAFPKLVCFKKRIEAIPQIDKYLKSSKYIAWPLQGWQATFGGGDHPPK

In the case of MBP-Tgat (aa 1-255), the “Tgat GEF activity on RhoA, kinetics fluorescence assay (kobs)” value (“Tgat GEF activity on RhoA” below) [1] is reported as “inhibited Tgat GEF activity in a dose-dependent manner”, the “Tgat GEF activity on RhoA” value [2] is reported as “inhibited Tgat GEF activity in a dose-dependent manner” and the “Tgat GEF activity on RhoA” value [3] is reported as “GST alone (not shown) ... had no effect”. For the same substance, the “Tgat GEF activity on RhoA” value [4] was “GST-TRIPα, at the same concentrations, had no effect”.
